Experimental data from paper PMC8683085, “Serine ADP-ribosylation marks nucleosomes for ALC1-dependent chromatin remodeling” (eLife, 2021).

Target: unmodified nucleosome (UniProt P68431)

ALC1 nucleosome remodeling rate constant (REA assay): < 0.0003 min⁻¹
Substance: ALC1 (full-length, 6xHis-1xFLAG-ALC1) (from UniProt Q86WJ1 1-897) (enzyme)
